# Assay: soluble fraction after stress (log2 fold change); higher = more stays soluble; pooled small domains, quantitative proteomics
# Conditions: stress: 75 degC
# 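Also: 20 min heating vs room temperature control held 20 min.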
row,Sequence,soluble fraction (log2)
1,HMEKGNEEALEQAREAILAVQSGEKYVDLDPANAAIRRKQHALAQASDLVSQSYGKDPNRYVRIFR,0.233
2,HMEKINLLVENNDNYRLDKIIALNMEELSRTQIQEMIGQGLVLVNGKVEKASYKTKLNDQIEITIED,-0.0065
3,HMEKKKVPEVAGQDEAAARNVMTNSGFVVDVEQKEDDNVPAGKVITTAPAGGVEVVEGTKIILYVSKGSN,-0.052
4,HMEKKPYGEMHNVMLTDEELEKLRHDYPAHFAEYIQRLSLHIDAKGARYKSHYAVIRKWLIADGVKA,-2.36
5,HMEKLIRIKRLIKQLNEYRDSYYNEARPVVSDAAYDKLFDELSELEKETGVVYANSPTQTVG,0.0942
6,HMEKPTEITLSNRVSVQELAEKMYVSETDIIRTLFLDGRIININQVLDIDTAIRVGEQLGIKIKII,-2.14
7,HMEKPTRNKLVEIIIQNKNVTTEQMANLLNISRRAVAKHIKKLQEEGIIRRIGPDFGGHWEIVK,-0.294
8,HMEKPYTPPANLNEIQSYEELSKAVQYYNKVKDAATTDADRLKAQQSIDTLEDMRKAWDAASST,0.328
9,HMEKSLSAQVYEKIKAGIISLKYPPGSVLKERELSESLGVSRTPVREAIQRLSQESWLVPGEGKRMQVRP,-0.0542
10,HMEKTLAERVNDILAEIKMTKQELAMQLNISRSAVSQYLNGKYSSNPEAIEARLRDFVSSYDRG,-0.292
11,HMEKYIVEAEEQGKRLDMYISSKDEELTRTSAQRLIEQGDILVNNKKVKVAYKVSEGDIIAVEKQ,-0.0711
12,HMELDLPLEELGLSTRVLHSLKEEGIESVRALLALNLKDLKNIPGIGERSLEEIKEALEKKGFTLK,-0.103
13,HMELEENTERVLNILIENDIISENDIAEKLEVKINGARKALYKLKEVGFVEYTKERDEEKKWWYIYFWKLN,-0.132
14,HMELEKIRPDLDGLEIMAILGISPSPIVGRAYQYLLDLRMDRGPLGPDAAKAELLNWWSLNQPK,-1.66
15,HMELGRQDSAQLGRWAAGILAKNGKKITGRTMEFFLSRTGDDMENISSELEKLISYTLGREVITEEDIEAV,-0.263
16,HMELGWYVRLRRRELGLSVTALAEKAGMSQSYLSQIETGDRGNPSPESLRSLAEALEVSPRELESLV,-2.82
17,HMELMKPPGYWQSLENAIYESKKVIKEHGFDTLPSSNKLRELDYHGLSRAISVHHSGFPNFREIMNQELGI,-0.00652
18,HMELNDEELIKGIQELLTKIGYDPGEINGVLGIKTSSAISAFQQSRNKAITGEADLDLLVQLQIELRKITT,-1.86
19,HMELNGVSETAKSVYSIILNNSSTVDDIVIKTKLPAAKVMQALTELELNDAVERKSGGVYALP,0.0577
20,HMELPADLATVLSVDDIRAIALAEVPGSTITGVELEREEGVLVYKVKFNDGSYKLYDANTGELV,0.105
21,HMELPPLEPIDRILVVQQPINIREQPGVLAKKIGRVSSGETLTILAKVSGQDWYFVETDNGGRGYVFKRV,-1.15
22,HMELQYSQEIEEAQKILENLGLYRGEIDGINGINTKSAIREFQRKSGLVVDGILGPNTTNALSKGSDAYIT,0.0481
23,HMELVQIIGNNIRDLMTTRSVTITDLANYLNVSRQTLQNYLRGSNIIDSVKLVAVSDFFDVPVESLLQSK,-1.45
24,HMEMGNKIKELRTKLGITQEELSKTLNVSSQAVSKWENGGLPDLELIPEIAKYFNVTTDYLFDIK,-0.187

row,Sequence,soluble fraction (log2)
1,HMEMKVIPFNQMTRDQFDQLDRFLGRLAAAQAMGSLRLTKAQQNYFLNQVKQLDLYRKRILN,-1.96
2,HMEMTSREIIKRLEEDGWYHVKTTGDHYQMKHPTKPGKVTIVHPAKDLSIGTLRSIEKQSGVRL,-0.18
3,HMEMVSMPGLTGSTLEFATKTLTENELKYEVVYIVDASAESGLIIRTYPTEGEMVSKKTSTIYLYIKE,-3.4
4,HMENDGQFLRAEREKYGLTLTDIYEHTHIPIKKLKAYEMWEEEMPPRTRALLELYFDQVAFEYDS,-0.862
5,HMENDPYEILGIARSASDDEIKAKYRALTRENHPDILMAKGVPQEFIDLANEKMAVINAAYDKIEKER,0.407
6,HMENEDMTGDIRVIDYIRNVAEYIQTTKGQASASQMLDRFLFPPELQYTPLDKLSGGEQRRLYLLKVLMEA,0.0433
7,HMENEFEAYSDGSSIQLNDPSKATYVVFDRQGRLLHLFQNHSLSSLSIERKNQILIITRETADGVSVKKIV,-0.53
8,HMENEIPVPELVGMSEADAAAKLASLGLERDTQREATADEESVGKVLRQEPTPGEYVDEGHKVTIWVGE,0.184
9,HMENFSTLFSRLKEERGLSNKQISSFTGAPIKEVKKWESGMGIPTEKRIVAALEGILGSEISKAI,-0.125
10,HMENHILIIDDDLMLLKTAEEILSDQYNVSVAKSGIQALNLLNKNIIPDLILLDIDMPQMDGYETL,-0.0633
11,HMENIIFDIGFHKGEDTLFYLLKGYRVIAVDADPDLINEWQNIFKKYIENGKLLLLNYVISDT,-1.29
12,HMENISVESKMKLLLKSLKTRDFISLPELVLKGESKLAISVILVAALELNRKGYIEVVQAEQFGEIYFKNT,-0.173
13,HMENKVLVITEEEKGKRLDVYLAAALEVSRSYAQQLIQGEDVVVNDKQVKANYRLSEGDVVQVQLD,1.01
14,HMENLIEELTAKNKEYIHSVTKQLILVGKSDEEVKEILNDILPQIIEGQKSGIIARKLLGAPTEFVSQYQP,-0.269
15,HMENLQLQQLVKGLPEKMQEIVILRFSQELTMREIADIVNLPMRTVQSQLRLALKILKKEMG,-0.682
16,HMENLSFNINSEEEGQRIDKYLSVMIEGKSRSFVQGLIEEKKVKANSKVIKSNYKLKKGDFIEVEVPEPV,0.289
17,HMENLSGNDIKYLRKKYNLTQKELADALGLQKFGDRTIRRWEAEETHPSKLEQSSIQSFFNSLK,-0.0716
18,HMENLTLVIGNKLKNIRNSRNLSLDDVAELTGVSKAMLGQIERGKSNPTVSTLWKISTGLRVSFSSFIDE,-3.44
19,HMENLVPVVVATTNIEPRTQITDAMVKVEQIPALGRNESMLEDPALVVGGYATGKIYAGQSFIQPMVSK,0.351
20,HMENNIILNYVKDNLNITEKDAKDLIELLGSDYYHIKNETNKIAAFLDGQPYSFEKIKNLISIDKEY,0.0409
21,HMENPLETYYSQWVSAIKREHPEASFVKDTDGKYYVEGLTKNRLAVIYENPHLVRLVNATTNLHVE,-0.567
22,HMENPVPVIITDQNFQPLLWKNVGVPTDTIFHELSPENQKKLENLMKTMVQMPLTDDGRISGYAYYSK,0.0767
23,HMENQFNDWSLTPSEKEVALFMLKGLSTQEIAAARNTKEKTVRQQASAVYAKSQLDGRYALAAWFFEDI,-0.702
24,HMENQMIIYIDENDENKRLDSYLSEITPDYSRSKIQNFIKNGNVTVNDSNKKPSYLLKENDKISFELPQQ,-0.0893

row,Sequence,soluble fraction (log2)
1,HMENSLLSESLAKIYIKTHRYERAYEILSRLSLAVPEKNAYFADQLRFLRKVMLAESFRKQHS,0.0207
2,HMENTSPMTPEQSKALMAYLTKRHGDSREAYLSELSQFFGRPLSSSRELTKADVSEFLNAIN,0.0561
3,HMENVVESIYNKMVESITNGQWAAGSKIPTENELAKTYQVSRSSVRQAISRLKALGLLESRQGSGTVIKK,-0.0436
4,HMENWMPNLVNQDKRLAINTLRELGFTEEAGNLVIREETSEDVTKDYVISTDPVAETDLADVEKVTLVVSS,0.116
5,HMENYIEQLTAKNSEYIHVVTRELVKIGKSDEEIKAILSDILPQIVAAQDQRVLAKDILGTPSEFTAKYAP,0.462
6,HMEPDDLTVIKGIGPVAAKDLNEQGIITFAQLAKLSDKDVAKIDEHMPFSADQIKDWREQAKELAK,0.739
7,HMEPDEIVLDHRKRIENSDAIVLIAPIWNFRMPAILEGWIDKVLAPPWAFKFKKLFGNYGYPVGNLKG,0.0917
8,HMEPDTVVVPNFVGKVYASEIEGNEAYSDFTFVIKEGNDPEQDIGVVLKQTPNEGLEVKKGKEITLTINQ,0.031
9,HMEPEAKIDFILKAAQKRLGLYGYEKTTMQEIAADINMSKAALYYYFPDKESLFKAVVENEQEEYFH,-1.97
10,HMEPEDVIAMERYLASGAIKGIGVTLAGRIIKKFQKETFHIIEEEPERLSEVKGISEKLAREIYQQFTQK,-1.11
11,HMEPERRHLEVPAEAEGERIDRFLASQLENLSRSRIQALIKAGYVRNRRGTIEDPGLRVKPGDAFVVDLPP,0.354
12,HMEPEVEITYFKPDERKAGGAYVTVTGAVIKVDDFERLITMQDGTKIPMDDILSIDGELFLS,-0.502
13,HMEPGEVQVDGLRFIAQPQERNDFEVALEQFRAGNFAAARKSFAAFINTYKQSGYLPSARFW,0.0135
14,HMEPLKLGDATGDGKINLQDVLEMQKHMAGILVLKGKFFTAADVNGNGKIELVDVLSVQKYLAGVTAEV,0.11
15,HMEPLVSKVFQVSYQKTADLVALIKSEDSKLLSARGTLISDERTSQIFVQDTPTRLERISMIVNGL,-0.889
16,HMEPMNMYSSIKKVIGVVSGKGGVGKSLVTASLARMMRAKGYHVGIMDADITGPSIPKMYGLHEMA,0.395
17,HMEPVDYEALRKELMQKVMGLFTQSRDVGIQILSSFGAKKLSDVPDDKLVAFAASVDKALAG,-0.193
18,HMEPVQFIQFKIPDGHPWSGQLLREVRLPPGTLVVLLKHDGKNIIPNGETPLLAGDSVILSAASPT,-0.567
19,HMEQAAQPQTGFDPRRLKAGDAVHLLALDQRGVLLEDPKPGAESAPVSVGVAGVRVVVPLREMEALPAG,0.0201
20,HMEQEVLDLLFDAIRSLPEKYRRLFDMSFEQGLKNAEIAALLHVSESAVKKQKASMIQQLRDDLLRKTGKD,-0.745
21,HMEQFDFTILRELRKRAGLSIGEVSAESGVSAAVISKLERNRTRAELDTLYRLARVFGITAAELLNLAEA,-2.19
22,HMEQIETIFLSAAPYARTHIIHLLETSELFRDKYLTIVETSNGLLIYTEDKNRLLGILNSLT,-2.51

# Source: the domain aggregation screens of Martell et al. (2025)
